Laboratory results published in PMC4427162.

Legend:
[1] = molecular target: Leishmania major tubulin-binding cofactor A (Leishmania major Friedlin); experiment: SEC; calibrated Superdex 75 26/60 column, 50 mM Tris-HCl, 250 mM NaCl pH 7.5, no reducing agent
[2] = molecular target: Leishmania major tubulin-binding cofactor A (Leishmania major Friedlin); experiment: MALDI-TOF mass spectrometry; sample that was used for crystallization (the approx. 27 kDa gel-filtration peak)

- stoichiometry N [1]: 2
- stoichiometry N [2]: 2
Substance: Leishmania major tubulin-binding cofactor A (natural protein)
